Experimental data: paper PMC5374410, “Identification of a Potent Allosteric Inhibitor of Human Protein Kinase CK2 by Bacterial Surface Display Library Screening” (Pharmaceuticals, 2017)

B1: recombinant human protein kinase CK2 holoenzyme coupled to fluorescein isothiocyanate (FITC) (complex)
chain 1: MSGPVPSRARVYTDVNTHRPREYWDYESHVVEWGNQDDYQLVRKLGRGKYSEVFEAINITNNEKVVVKILKPVKKKKIKREIKILENLRGGPNIITLADIVKDPVSRTPALVFEHVNNTDFKQLYQTLTDYDIRFYMYEILKALDYCHSMGIMHRDVKPHNVMIDHEHRKLRLIDWGLAEFYHPGQEYNVRVASRYFKGPELLVDYQMYDYSLDMWSLGCMLASMIFRKEPFFHGHDNYDQLVRIAKVLGTEDLYDYIDKYNIELDPRFNDILGRHSRKRWERFVHSENQHLVSPEALDFLDKLLRYDHQSRLTAREAMEHPYFYTVVKDQARMGSSSMPGGSTPVSSANMMSGISSVPTPSPLGPLAGSPVIAAANPLGMPVPAAAGAQQ
chain 2: not shown
modifications: FITC covalently coupled to the holoenzyme, sites not stated | FITC covalently coupled to the holoenzyme, sites not stated
notes: catalytic subunit CK2α of human protein kinase CK2; regulatory subunit CK2β of human protein kinase CK2; FITC-labelled in the flow cytometry; also called CK2-FITC; fluorophore coupled CK2; source: E. coli BL21(DE3), purified (protocol of Grankowski et al. with modifications), FITC labeling Kit (Calbiochem); copies: 2 + 2

How the values were obtained:
[1] = target: B1; assay: cell-based or functional assay
[2] = target: B1; assay: cell-based or functional assay; remark: listed apart in the source
[3] = target: human CK2α, catalytic subunit alone (unlabelled) (human, UniProt P68400 1-391); assay: cell-based or functional assay
[4] = target: T1, human αS1-casein (170 aa) displayed on E. coli UT5600(DE3) by autodisplay (plasmid pKP10) (human, UniProt P47710 16-185); assay: flow cytometry on cells; E. coli UT5600(DE3) cells displaying the passenger by autodisplay incubated with fluorescein-coupled CK2 holoenzyme for 30 min at 37 °C in 50 mM Tris/HCl pH 7.4, 100 mM NaCl, 10 mM MgCl2, 1 mM DTT, 200 µM ATP; washed; excitation 488 nm, 527/30 nm filter; host strain without plasmid as control; conditions: one partner purified
T1 construct: human αS1-casein as autodisplay passenger, 510 nt, 170 aa as printed; Passenger between the cleaved signal peptide of the autotransporter precursor and the linker; also called full-length αS1-casein; not shown: AIDA-I autotransporter linker and β-barrel, C-terminal, kept
T1 sequence (looked up): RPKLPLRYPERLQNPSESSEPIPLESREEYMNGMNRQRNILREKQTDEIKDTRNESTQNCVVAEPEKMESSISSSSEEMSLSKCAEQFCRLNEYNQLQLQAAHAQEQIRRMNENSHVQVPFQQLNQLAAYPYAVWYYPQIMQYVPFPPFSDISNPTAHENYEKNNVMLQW

For DCRGLIVMIKLH [peptide B2 (free synthetic peptide)], the “IC50 of inhibition of the kinase activity of (unlabelled) CK2 holoenzyme, CE assay with substrate peptide …” value [1] was 800 nM, the “Ki, taken as equal to the IC50 of the CE kinase assay (non-competitive inhibition with α = 1)” value [2] was 800 nM and the “IC50 of inhibition of the kinase activity of the catalytic subunit CK2α alone, CE assay” value [3] was 800 nM.

B1 was tested, and the “fold fluorescence intensity over control cells” value [4] was 10 fold.
